Test results as given in patent US12065466B2, “Methods and compositions for protein sequencing” (Quantum-Si Incorporated, priority 2020, dated 2024).

B1: atClpS2: Agrobacterium tumifaciens ClpS2, SEQ ID NO: 94 (protein, listed as Agrobacterium tumifaciens)
chain: MSDSPVDLKPKPKVKPKLERPKLYKVMLLNDDYTPREFVTVVLKAVFRMSEDTGRRVMMTAHRFGSAVVVVCERDIAETKAKEATDLGKEAGFPLMFTTEPEE
B2: atClpS2-V1 + C72S: ClpS protein, SEQ ID NO: 101 (protein)
chain: MSDSPVDLKPKPKVKPKLERPKLYKVMLLNDDYTPMSFVTVVLKAVFRMSEDTGRRVMMTAHRFGSAVVVVSERDIAETKAKEATDLGKEAGFPLMFTTEPEE
B3: atClpS2 C72S: ClpS protein, SEQ ID NO: 100 (protein)
chain: MSDSPVDLKPKPKVKPKLERPKLYKVMLLNDDYTPREFVTVVLKAVFRMSEDTGRRVMMTAHRFGSAVVVVSERDIAETKAKEATDLGKEAGFPLMFTTEPEE
B4: PS575: PS372-homologous ClpS protein, SEQ ID NO: 89 (protein, listed as Leptospira kmetyi)
chain: MASTQTPDLNEITEESTKSTGGPWRVVLWDDNEHTYEYVIEMLMEICTMTVEKAFLHAVQVDQEKRTVVFSGEFEHAEHVQERILTYGADPRMSNSKGSMSATLEK
B5: PS576: PS372-homologous ClpS protein, SEQ ID NO: 90 (protein)
chain: MASTQTPDLNEITEESTKSTGGPWRVVLWDDNEHTYEYVIEMLVEICMMTVEKAFLHAVQVDKEKRTVDFSGELEHAEHVQERILNYGADPRMSNSKGSMSATLER
modifications: Leptospira interrogans
B6: PS568: PS372-homologous ClpS protein, SEQ ID NO: 82 (protein, listed as Dehalococcoidia bacterium)
chain: MTTPSLPTRETEVEERTEVEPERLYHLVLLDDDQHSYQYVIEMLASIFGYGSEKAWTLARIVDTEGRAILETASHAQCERHQSQIHAYGADSRIPTSVGSMSAVIEEAGTPPQT
B7: PS573: PS372-homologous ClpS protein, SEQ ID NO: 87 (protein, listed as Leptospira fluminis)
chain: MSQTPVIEETTVKDPVKTGGPWKVVLWDDDEHTYDYVIEMLMEVCVMTMEQAFHHAVEVDTQKKTVVYSGEFEHAEHIQELILEYGPDPRMAVSKGSMSATLEKS
B8: PS376: ClpS protein, SEQ ID NO: 9 (protein)
chain: MPTNDLDLLEKQDVKIERPKMYQVVMYNDDFTPFDFVVAVLMQFFNKGMDEATAIMMQVHMQGKGICGVFPKDIAETKATEVMKWAKVEQHPLRLQVEAQA
B9: PS578: PS372-homologous ClpS protein, SEQ ID NO: 92 (protein, listed as Planctomycetes bacterium)
chain: MSGTVVESKPRNSTQLAPRWKVIVHDDPVTTFDFVLGVLRRVFAKPPGEARRITREAHDTGSALVDVLALEQAEFRRDQAHSLARAEGFPLTLTLEPAD
B10: PS567: PS372-homologous ClpS protein, SEQ ID NO: 81 (protein, listed as Planctomycetaceae bacterium)
chain: MADYEDAGEDALEDDFDHGTVTVAPQKPEPKKQSENKRQANRQPRYNVLLWDSEDHTFEYVEKMLRELFGHIKKQCQIIAEQVDQEGRAVVLTTTLEHAELKRDQIHAYGKDQLEGSKGSMWSTIEAVD
B11: Synechococcus elongatus ClpS1: ClpS protein, SEQ ID NO: 105 (protein, listed as Synechococcus elongatus)
chain: MAVETIQKPETTTKRKIAPRYRVLLHNDDFNPMEYVVMVLMQTVPSLTQPQAVDIMMEAHTNGTGLVITCDIEPAEFYCEQLKSHGLSSSIEPDD
B12: PS570: PS372-homologous ClpS protein, SEQ ID NO: 84 (protein, listed as Leptospira congkakensis)
chain: MTGAGASQPSILEETEVRPRLSDGPWKVVLWDDDFHTYEYVIEMLMDVCQMPWEKAFQHAVEVDTRKKTIVFSGELEHAEFVHERILNYGPDPRMGSSKGSMTATLEQ
B13: PS571: PS372-homologous ClpS protein, SEQ ID NO: 85 (protein, listed as Leptospira meyeri)
chain: MTSSGASQPSILEETERKPRLSDGPWKVVLWDDDFHTYEYVIEMLMDVCQMPWEKAFQHAVEVDTRKKTIVFFGELEHAEFVHERILNYGPDPRMGTSKGSMTATLEK
B14: PS572: PS372-homologous ClpS protein, SEQ ID NO: 86 (protein, listed as Blastopirellula marina)
chain: MSSEELSLQTRPKRQPPFGVILHNDDLNSFDYVIDSIRKVFHYELEKCFQLTLEAHETGRSLLWTGTLEGAELKQELLLSCGPDPIMLDKGGLPLKVTLEELPQ
B15: PS577: PS372-homologous ClpS protein, SEQ ID NO: 91 (protein, listed as Tuwongella immobilis)
chain: MSASSSQPGTTTKPDLDIQPRLLPPFHVILENDEFHSMEFVIDTLRKVLGVSIERAYQLMMTAHESGQAIIWTGPKEVAELKYEQVIGFHEKRSDGRDLGPLGCRIEPAV
B16: PS574: PS372-homologous ClpS protein, SEQ ID NO: 88 (protein, listed as Gemmata obscuriglobus)
chain: MANATPTPDVVPEEETETRTRRQPPYAVVLHNDDTNTMDFVVTVLRKVFGYTVEKCVELMLEAHTQGKVAVWIGALEVAELKADQIKSFGPDPHVTKNGHPLGVTVEPAA
B17: atClpS1 C7S: ClpS protein, SEQ ID NO: 103 (protein)
chain: MIAEPISMQGEGDGEDGGTNRGTSVITRVKPKTKRPNLYRVLLLNDDYTPMEFVIHILERFFQKDREAATRIMLHVHQHGVGECGVFTYEVAETKVSQVMDFARQHQHPLQCVMEKK
B18: atClpS1 C7S, C84S, C112S: ClpS protein, SEQ ID NO: 104 (protein)
chain: MIAEPISMQGEGDGEDGGTNRGTSVITRVKPKTKRPNLYRVLLLNDDYTPMEFVIHILERFFQKDREAATRIMLHVHQHGVGESGVFTYEVAETKVSQVMDFARQHQHPLQSVMEKK
B19: PS569: PS372-homologous ClpS protein, SEQ ID NO: 83 (protein, listed as Planctomycetes bacterium)
chain: MYSKNQIKIYCSEDDKGQTATPLLEKKPKFAPLYHVILWDDNTHTYEYVIKLLMSLFRMTFEKAYQHTLEVDKKGRTICITTHLEKAELKQEQISNFGPDILMQNSKGPMSATIEPAN
B20: PS375: ClpS protein, SEQ ID NO: 8 (protein)
chain: MEAEPETKVLASIPGVGTSEPFRVVLFNDEEHSFDEVIFQIIKAVRCSRAKAEALTMEVHNSGRSIVYTGPIEQCIRVSAVLEEIELRTEIQS

Tested on: amino acid at a terminal position of a polypeptide
Test: Amino acid binding preference of recognition proteins (Tables 1 and 2)
Settings: Table 1, ClpS proteins; amino acid identity at a terminal position of a polypeptide; inferred from literature and/or demonstrated by the inventors
Description: It should be appreciated that these sequences and other examples described herein are meant to be non-limiting, and recognition molecules in accordance with the application can include any homologs, variants thereof, or fragments thereof minimally containing domains or subdomains responsible for peptide recognition.

Row | Molecule | Binding Pref.
1 | B1 | F, W, Y
2 | B2 | F, W, Y
3 | B3 | F, W, Y
4 | B4 | I, L, V
5 | B5 | I, L, V
6 | B6 | I, L, V
7 | B7 | I, L, V
8 | B8 | F, W, L
9 | B9 | I, L, V
10 | B10 | I, L, V
11 | B11 | F, W, Y
12 | B12 | I, L, V
13 | B13 | I, L, V
14 | B14 | I, L, V
15 | B15 | I, L, V
16 | B16 | I, L, V
17 | B17 | F, W, Y, L
18 | B18 | F, W, Y, L
19 | B19 | I, L, V
20 | B20 | F, L
